How the values were obtained:
[1] = biological target: His6-CsuA/B (N-terminal donor strand sequence replaced by a His6-tag); settings: parent: est. 1.0; read off a plot
[2] = biological target: His-tagged EcpB (wild type) (Escherichia coli) (UniProt P77188); assay: SEC

| Substance | ratio to parent [1] | stoichiometry N [2] |
| --- | --- | --- |
| CsuC (wild type, without tag) R89A | 0.15 | – |
| CsuC (wild type, without tag) R89A; Y196F | 0.02 | – |
| CsuC (wild type, without tag) R174A | 0.5 | – |
| CsuC (wild type, without tag) Y196F | 0.13 | – |
| EcpA with a Trp11Ala mutation (from UniProt P0AAA3 23-195) (natural protein) | – | 1 |
